This is an account of results in PMC6689051.

A value given as a limit tells only on which side of the number the result lay.

Conditions in all cases: 10 mM Tris-HCl pH 7.5, 50 mM KCl, 10 mM MgCl2 (10.1 mM MgCl2 + 0.1 mM EDTA), 23 C; nitrocellulose filter binding, 2 nM-2 uM Fab, 30 min
Data set [1] concerns Fab HAVx (synthetic (phage display, humanized Fab4D5 framework, YSGRKX library; expressed in E. coli)), PDB:6MWN_2+PDB:6MWN_3. Description: filter binding.
For the next data set, the system named is P0. Nature of the data set: method not stated in excerpt.
The subject of data set [2] is best Fab clone from YSGR library (unnamed) (synthetic (phage display, humanized Fab4D5 framework; expressed in E. coli)). Description: filter binding.

As for “GGCAAACAUCAUUUGGCCUUAAAUGGGAUUCUGUGAGACGGGAUCCCUCCAUUGACAGCUGGACUGUUCUUUGGGGCCUUAUGUGGUGUUUG [HAV dV G631C]”, in data set [1], the dissociation constant Kd (in general, the concentration at which binding is half-saturated) was found to be 0.058 µM.
The same measure, in the same setting: with HAV593-706 the figure was 0.049 µM; with “GGCAAACAUCAUUUGGCCUUAAAUGGGAUUCUGUGAGAGGGGAUCCCUCCAUUGACAGCUGGACUGUUCUUUGGGGCCUAUGUGGUGUUUG [HAV dV delU674]”, 0.176 µM.
Regarding “GGCAAACAUCAUUUGGCCUUAAAUGGGAUUCUGUGAGAGGGGAUCCCUCCAUUGACAGCUGGACUGUUCUUUGGGGCCUUAUGUGGUGUUUG [HAV dV (HAV593-684)]”, the Kd in the data set with P0 was found to be 0.22 µM; in data set [2], 0.29 µM; in data set [1] it was 0.044 µM.
As for HAV593-720, the Kd in data set [1] is 0.047 µM.
Still for that read-out and setting: with “GGCAAACAUCAUUUGGCCUUAAAUGGGAUUCUGUGAGAGGGGAUCCCUCCAUUGACAGCUGGACUGUUCUUUGGGGCCUUAGUGGUGUUUG [HAV dV delU672]” the figure was more than 1 µM.
